Source: US20030082683A1

Target: hIK1 intermediate conductance, calcium-activated potassium channel (human) (UniProt O15554)
Test: cell-based or functional assay

Sequence of iberiotoxin (P24663 whole entry): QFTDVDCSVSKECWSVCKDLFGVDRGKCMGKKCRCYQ
Sequence of hIK1 intermediate conductance, calcium-activated potassium channel (human) (O15554 other isoform, or with tags, fused parts or gaps): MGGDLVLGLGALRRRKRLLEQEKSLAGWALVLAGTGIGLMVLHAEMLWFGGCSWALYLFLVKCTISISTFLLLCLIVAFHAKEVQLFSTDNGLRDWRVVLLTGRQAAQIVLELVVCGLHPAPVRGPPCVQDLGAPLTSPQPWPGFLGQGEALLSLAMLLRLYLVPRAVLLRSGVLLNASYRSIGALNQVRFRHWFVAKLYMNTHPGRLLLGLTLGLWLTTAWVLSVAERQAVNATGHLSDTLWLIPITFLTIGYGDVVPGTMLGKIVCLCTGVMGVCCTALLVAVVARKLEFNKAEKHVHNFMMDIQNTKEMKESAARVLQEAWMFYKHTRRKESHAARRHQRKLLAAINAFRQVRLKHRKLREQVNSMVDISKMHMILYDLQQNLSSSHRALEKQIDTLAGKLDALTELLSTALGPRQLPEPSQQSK

In the case of “iberiotoxin (from UniProt P24663 1-37) (peptide)”, the percent block of hIK1 current at 50 nM IBX is reported as 15%.
